Like-named read-outs stand apart in the source and are kept apart here.
Columns and labels:
[1] = biological target: T1, human CD3 expressed on cells (Jurkat cells; human T-cells of PBMC) (human, UniProt P09693 23-182; P20963 22-164); experiment: cell-based or functional assay
[2] = biological target: cynomolgus monkey CD3 expressed on monkey T-cells (PBMCs) (cynomolgus monkey, UniProt Q95LI5 22-198; Q95LI8 22-171); experiment: cell-based or functional assay
[3] = biological target: T1, human CD3 expressed on cells (Jurkat …); experiment: cell-based or functional assay; remark: listed apart in the source
[4] = biological target: T1, human CD3 expressed on cells (Jurkat …); experiment: FACS titration on Jurkat cells, monovalent 1-arm antibody
Description: (§1) FACS data was acquired using the following protocol: Cells at 2×10⁵ per well were incubated with serially diluted antibodies for 30 min on ice. Post incubation, cells were washed and secondary antibody was added and incubated for an additional 30 minutes. After incubation, cells were washed, re-suspended in cold PBS containing 1% BSA and analyzed by flow cytometry with viable Jurkat cells gated by side and forward scatters. The EC₅₀s for cell binding titration were determined using Prism software with values calculated using a 4-parameter non-linear regression analysis.

[5] = biological target: T1, human CD3 expressed on cells (Jurkat …); experiment: cell-based or functional assay; remark: listed apart in the source
[6] = biological target: T1, human CD3 expressed on cells (Jurkat …); experiment: cell-based or functional assay; remark: listed apart in the source
[7] = biological target: T1, human CD3 expressed on cells (Jurkat …); experiment: FACS titration on Jurkat cells (CD3+ human T-cell line)
Description: as §1

T1 sequence (chain, as listed by the source, chain 1 of 4): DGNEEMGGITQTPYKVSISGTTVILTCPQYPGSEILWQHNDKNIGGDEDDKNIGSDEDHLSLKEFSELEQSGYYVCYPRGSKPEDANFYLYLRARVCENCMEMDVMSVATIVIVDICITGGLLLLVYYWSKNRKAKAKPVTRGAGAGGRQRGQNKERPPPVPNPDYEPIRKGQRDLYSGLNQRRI
T1 sequence (chain, as listed by the source, chain 2 of 4): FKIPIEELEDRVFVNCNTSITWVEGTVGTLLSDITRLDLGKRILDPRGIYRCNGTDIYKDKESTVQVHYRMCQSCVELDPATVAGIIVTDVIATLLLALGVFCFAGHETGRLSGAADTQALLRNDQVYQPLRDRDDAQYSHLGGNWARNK
T1 sequence (P09693 23-182, chain 3 of 4): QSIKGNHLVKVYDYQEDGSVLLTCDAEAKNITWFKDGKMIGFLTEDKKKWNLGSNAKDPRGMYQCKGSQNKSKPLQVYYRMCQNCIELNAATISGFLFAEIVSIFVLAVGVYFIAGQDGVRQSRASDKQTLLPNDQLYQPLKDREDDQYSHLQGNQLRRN
T1 sequence (P20963 22-164, chain 4 of 4): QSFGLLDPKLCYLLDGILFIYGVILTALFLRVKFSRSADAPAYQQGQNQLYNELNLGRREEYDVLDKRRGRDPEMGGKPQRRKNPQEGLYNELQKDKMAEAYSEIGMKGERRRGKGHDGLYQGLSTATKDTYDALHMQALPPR
cynomolgus monkey CD3 expressed on monkey T-cells (PBMCs), sequence (Q95LI5 22-198, chain 1 of 2): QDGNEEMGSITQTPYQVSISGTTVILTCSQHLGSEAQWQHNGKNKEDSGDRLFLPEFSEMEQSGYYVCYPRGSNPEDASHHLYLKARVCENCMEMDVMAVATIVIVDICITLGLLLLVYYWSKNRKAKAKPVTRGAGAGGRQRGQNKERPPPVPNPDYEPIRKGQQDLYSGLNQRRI
cynomolgus monkey CD3 expressed on monkey T-cells (PBMCs), sequence (Q95LI8 22-171, chain 2 of 2): as the sequence (chain, as listed by the source, chain 2 of 4) above, with I5V, N15K, I20V, S32T, D33N, I34N, T64A, S74N, V83L, H141R counted along it

Binder	EC50 [M] hPBMC Proliferation [1] [M]	EC50 [M] mfPBMC Proliferation [2] [M]	EC50 [4] [nM]	EC50 [M] hPBMC Proliferation [5] [M]	EC50 [7] [nM]	U937 Cytotoxicity Human T-cells [3] [pM]	U937 Cytotoxicity Human T-cells [6] [pM]
H1H5793B (antibody, human IgG1, V domains shown, H1H: human IgG1 Fc) VH: QVQLVQSGTEVKKPGASMKVSCKASGYTFTGYYIHWVRQAPGQGLEWMGWINPNSDVTKYAQKFQGRVTLTRDTSISAAYIDLSRLRSDDTAIYYCARMGDGAVFDYWGQGTLVTVSS VL: DIQLTQSPSSLSASVGDRVTITCRASQRISSYLNWYQQKPGKAPKVLISVASSLQSGVPSRFSGSGFGTDFTLTISSLQPEDSASYYCQQSYNTPLTFGGGTKLEIKR				3.28e-12	4.62		88.5
H1H5797B (antibody, human IgG1, V domains shown, H1H: human IgG1 Fc) VH: QVQLVQSGTEVKKPGASVKVSCKASGYTFTGYYMHWVRQAPGQGLEWMGWINPNSDVTNYAQKFQGRVTLTRDTSISTAYIDLSRLRSDDTAIYYCARMGDGAVFDYWGQGTLVTVSS VL: DIQMTQSPSSLSASVGDRVTITCRASQRISSYLNWYQQKPGKAPKVLISVASSLQSGVPSRFSGSGSGTDFTLTISSLQPEDFASYYCQQSYNTPLTFGGGTKVEIKR				1.07e-11	39.6		576
H1H7223P (antibody, human IgG1, V domains shown, Monovalent 1-arm format: second Fab removed, only the Fc portion (CH2-CH3) expressed; human IgG1 Fc; tied by the numerical identifier; also called H1H7223B) VH: QVQLVESGGGLVQPGRSLRLSCAASGFTFADYTMHWVRQAPGKGLEWVSDISWNSGSMGYADSVKGRFTISRDNAKKSLYLQMNSLRTEDTALYYCAKDGSGYGKYFFYAMDVWGQGTTVTVSS VL: not shown	1.07e-12	6.75e-11	0.937			5.3	
H1H7198P (antibody, human IgG1, V domains shown, Monovalent 1-arm format: second Fab removed, only the Fc portion (CH2-CH3) expressed; human IgG1 Fc; tied by the numerical identifier; also called H1H7198B) VH: EVQLVESGGGLVQPGRSLRLSCAASGFTFADYTMHWVRQVPGKGLEWVSDISWNSGSKDYADSVKGRFTISRDNAKNFLYLQMNSLRAEDTALYYCVKYGSGYGKFYFYAMDVWGQGTTVTVSS VL: not shown	2.55e-12	2.29e-12	0.726			5.21	
H1H7203P (antibody, human IgG1, V domains shown, Monovalent 1-arm format: second Fab removed, only the Fc portion (CH2-CH3) expressed; human IgG1 Fc; tied by the numerical identifier; also called H1H7203B) VH: EVQLVQSGGGLVQPGRSLRLSCAASGFTFADYTMHWVRQTPGKGLEWVSGISWNSGSKDYADSVKGRFTISRDNAKNSLYLQMNSLRTEDTALYYCAKYGSGYGRYFFYAMDVWGQGTTVTVSS VL: not shown	1.64e-12	4.97e-13	3.24			5.47	
H1H7204P (antibody, human IgG1, V domains shown, Monovalent 1-arm format: second Fab removed, only the Fc portion (CH2-CH3) expressed; human IgG1 Fc; tied by the numerical identifier; also called H1H7204B) VH: EVQLVESRGALVQPGRSLRLSCAASGFAFNDYTMHWVRQAPGKGLEWVSDISWNSNSKDYADSVKGRFTISRDNAKNSLYLQMNSLRAEDTALYYCVKDGSGYGKFSLYALDVWGQGTTVTVSS VL: not shown	1.51e-12	1.26e-11	2.29			10.8	
H1H5790B (antibody, human IgG1, V domains shown, H1H: human IgG1 Fc) VH: EVQLVESGGGVVQPGRSLRLSCAASGFTFSYYGMHWVRQAPGKGLEWVAVISFDGKNKYYADSVMGRFTISRDNSKNTLYLQMNSLRAEDSAVFFCARSYDILTGYGAGYSYHYGMDVWGQGTTVTVSS VL: AIQMTQSPSSLSASVGDRVTITCRASQRISSFLNWYQQKPGKAPKLLIYTASNLQNGVPSRFSGSGSGTDFTLTISSLQPEDFATYYCQQSYRTPLTFGGGTKVEIKR				2.71e-12	3.55		87.1
H1H5792B (antibody, human IgG1, V domains shown, H1H: human IgG1 Fc) VH: QVQLVESGGGVVQPGRSLRLSCAASGFTFSSYGMHWVRQAPGKGLEWVSTISFDGSNKYYADSVKGRFTISRDNSKNTLYLQMNSLRPEDTAVYYCAKGGGTSGSYFYYGMDVWGQGTTVTVSS VL: AIQMTQSPSSLSASVGDRVTITCRASQRISSFLNWYQQKPGKAPKLLIYTASNLQNGVPSRFSGSGSGTDFTLTISSLQPEDFATYYCQQSYRTPLTFGGGTKLEIKR				6.47e-12	5.87		140
H1H5798B (antibody, human IgG1, V domains shown, H1H: human IgG1 Fc) VH: QVQLVQSGGGLVKPGGSLRLSCAASGFTFSSYDMSWVRQAPGKGLEWVSYISSSGNTIHYADSVKGRFTISRDNSKNSLYLQMNSLRAEDTAVYYCAKAGPATVTRRYYYYYGLDVWGQGTTVTVSS VL: DIVMTQSPSSLSASVRDRVTITCRASQRISSYLNWFQQKPGKAPKVLIYTASSLQNGVPSRFSGSGSGTDFTLTISSLQPEDFATYYCQQSYRTPLTFGGGTKVEIKR				2.59e-12	5.57		181
H1H5801B (antibody, human IgG1, V domains shown, H1H: human IgG1 Fc) VH: QVQLVQSGGGVVQPGGSLRLSCAASGFTFDDYAMHWVRQAPGKGLEWVSLISGDGGSTYYADSVKGRFTISRDNSKNSLYLQMNSLRTEDTALYYCAKDDSSSSWYYYYYGMDVWGRGTTVTVSS VL: DIQMTQSPSSLSASVGDRVTITCRASQRISSYLNWYQQKPGKAPKVLISVASSLQSGVPSRFSGSGSGTDFTLTISSLQPEDFASYYCQQSYNTPLTFGGGTKVEIKR				1.09e-12	15.5		92.3
H1H5795B (antibody, human IgG1, V domains shown, H1H: human IgG1 Fc) VH: EVQLVESGAEVKKPGASVKVSCKTSGYSFIGYYIHWMRQAPGQGLEWMGWINPKSGVTNYAQRFQGRVTMTRDTSISTAYMELSRLKSDDTAVYFCARMGDGAVFDFWGQGTLVTVSS VL: DIQLTQSPSSLSASVGDRVTITCRASQRISSFLNWYQQKPGKVPKLLIYTASNLQNGVPSRFSGTGSGTDFTLTISSLQPEDFATYYCQQSYRTPLTFGGGTKVDIKR				3.09e-12	2.04		67.4
H1H7208P (antibody, human IgG1, V domains shown, Monovalent 1-arm format: second Fab removed, only the Fc portion (CH2-CH3) expressed; human IgG1 Fc; tied by the numerical identifier; also called H1H7208B) VH: QVQLVESGGGLVHPGRSLRLSCAASGFKFDDYTMHWVRQAPGKGLEWVSDISWNSGSKGYADSVKGRFTISRDNAKDSLYLQMDSLRAADTAFYYCAKDKSGYGHFYYYAMDVWGQGTTVTVSS VL: not shown	1.46e-12	7.02e-12	51.9			45.9	

Further lines, with some results ahead:

EC50 [M] hPBMC Proliferation [1] [M]	EC50 [M] mfPBMC Proliferation [2] [M]	EC50 [4] [nM]	EC50 [M] hPBMC Proliferation [5] [M]	EC50 [7] [nM]	Binder	U937 Cytotoxicity Human T-cells [3] [pM]	U937 Cytotoxicity Human T-cells [6] [pM]
2.6e-12	1.72e-12	1.4			H1H7221P (antibody, human IgG1, V domains shown, Monovalent 1-arm format: second Fab removed, only the Fc portion (CH2-CH3) expressed; human IgG1 Fc; tied by the numerical identifier; also called H1H7221B) VH: EVQLVESGGGLVQPGRSLRLSCVASGFTFDDYSMHWVRQAPGKGLEWVSGISWNSGSKDYADSVKGRFTISRDNAKNSLYLQMNSLRAEDTALYYCAKYGSGYGKFYHYGLDVWGQGTTVTVSS VL: not shown	9.21	
7.34e-13	4.35e-12	0.715			H1H7233P (antibody, human IgG1, V domains shown, Monovalent 1-arm format: second Fab removed, only the Fc portion (CH2-CH3) expressed; human IgG1 Fc; tied by the numerical identifier; also called H1H7233B) VH: EVQLVESGGGLVQPGGSLRLSCEASGFTFADYTLHWVRQAPGKGLEWVSDISWNSGTRGYADSVRGRFTISRDNAKKSLYLQMNSLRSEDTALYYCVKDGSGYGRYNFYAMDVWGQGTTVTVSS VL: not shown	11.9	
1.03e-12	4.9e-11	1.5			H1H7232P (antibody, human IgG1, V domains shown, Monovalent 1-arm format: second Fab removed, only the Fc portion (CH2-CH3) expressed; human IgG1 Fc; tied by the numerical identifier; also called H1H7232B) VH: EVQLVESGGGLVHPGRSLRLSCAASGFTFDDYTMHWVRQAPGKGLEWVSDISWNSGSRGYADSVKGRFTISRDNAENSLYLQMNSLRAEDTALYYCAKDKSGYGHYYYYAMDVWGQGTTVTVSS VL: not shown	9.96	
9.52e-13	2.26e-11	0.795			H1H7226P (antibody, human IgG1, V domains shown, Monovalent 1-arm format: second Fab removed, only the Fc portion (CH2-CH3) expressed; human IgG1 Fc; tied by the numerical identifier; also called H1H7226B) VH: EVQLVQSGGGLVQPGRSLRLSCAASGFTFSDYTMHWVRQGPGKGLEWVSDISWNSGSKGYTDSVKGRFTISRDNAKKSLYLQMNSLRAEDTALYYCVKDGSGYGKYHFYAMDVWGQGTLVTVSS VL: not shown	10.4	
2.75e-12	2.81e-13	0.701			H1H7211P (antibody, human IgG1, V domains shown, Monovalent 1-arm format: second Fab removed, only the Fc portion (CH2-CH3) expressed; human IgG1 Fc; tied by the numerical identifier; also called H1H7211B) VH: EVQLVESGGGLVHPGRSLRLSCTASGFKFADYTMHWVRQAPGKGLEWVSDISWNSGSKGYADSVKGRFTISRDNDKNSLYLQMNSLRGEDTALYYCAKDGSGYGRFHFYAIDVWGQGTTVTVSS VL: not shown	7.89	
2.13e-12	1.38e-11	1.83			H1H7242P (antibody, human IgG1, V domains shown, Monovalent 1-arm format: second Fab removed, only the Fc portion (CH2-CH3) expressed; human IgG1 Fc; tied by the numerical identifier; also called H1H7242B) VH: EVQLVESGGGLVQPGRSLRLSCAASGFTFDDYTMHWVRQGPGKGLEWVSDIGWNSNSIGYADSVKGRFTISRDNAKNSLYLQMNSLRPEDTALYFCVKDKSGYGKFFIGLDVWGQGTMVTVSS VL: not shown	7.5	
1.15e-12		1.95			H1H7269P (antibody, human IgG1, V domains shown, Monovalent 1-arm format: second Fab removed, only the Fc portion (CH2-CH3) expressed; human IgG1 Fc; tied by the numerical identifier; also called H1H7269B) VH: QVQLVESGGGLVQPGRSLRLSCAASGFKFDDYTMHWVRQGPGKGLEWVSDISWSGGSIDYTDSVKGRFSISRDNAKNSLYLQMNSLRVEDTALYYCVKDKSGYGKYSYGLDVWGQGTTVTVSS VL: not shown	10.8	
